Data: patent US20220153873A1 (ICAHN SCHOOL OF MEDICINE AT MOUNT SINAI, published 2022)
“And” between values parts separate entries of the source, which are not always exact repeats. Identical values can stand only once.

Key:
[1] = molecular target: recombinant neuraminidase (rNA) of B/Wisconsin/1/10 (influenza B virus B/Wisconsin/1/10)
[2] = molecular target: recombinant neuraminidase (rNA) of B/Malaysia/2506/04 (influenza B virus B/Malaysia/2506/04)

B1: HC0LC0 (antibody, V domains shown)
VH: QVHLQQSGPEVARPGASVKLSCKASGYTFTDYYLNWVKQRPRQGLEWIGQIHPGSTNTYYNEKFKGKATLTADKSSSTAYMQLSSLTSEDSAVYFCARSLGDGYYVYAMDYWGQGTAVTVSS
VL: DIVMTQSQKFMSTSVGDRVSVTCKASQNVVTNVVWYQQKPGQSPKPLIYSASYRYSGVPDRFTGSGSGTDFTLTISNVQSEDLAEYCCQQYHSYPFTFGSGTKLEVKR
For B1, the Early Stability X=902 [1] was 0.32 nm and 0.3 nm and 0.33 nm and the % Dissociation [2] was 0.52% and 0%.
